We go through 1 molecule from publication PMC5749160, “Disruption of an RNA-binding hinge region abolishes LHP1-mediated epigenetic repression”.

The target in the series is T1, GST-LHP1 (Arabidopsis thaliana (Col-0 cDNA), UniProt Q946J8 1-445).
T1 sequence: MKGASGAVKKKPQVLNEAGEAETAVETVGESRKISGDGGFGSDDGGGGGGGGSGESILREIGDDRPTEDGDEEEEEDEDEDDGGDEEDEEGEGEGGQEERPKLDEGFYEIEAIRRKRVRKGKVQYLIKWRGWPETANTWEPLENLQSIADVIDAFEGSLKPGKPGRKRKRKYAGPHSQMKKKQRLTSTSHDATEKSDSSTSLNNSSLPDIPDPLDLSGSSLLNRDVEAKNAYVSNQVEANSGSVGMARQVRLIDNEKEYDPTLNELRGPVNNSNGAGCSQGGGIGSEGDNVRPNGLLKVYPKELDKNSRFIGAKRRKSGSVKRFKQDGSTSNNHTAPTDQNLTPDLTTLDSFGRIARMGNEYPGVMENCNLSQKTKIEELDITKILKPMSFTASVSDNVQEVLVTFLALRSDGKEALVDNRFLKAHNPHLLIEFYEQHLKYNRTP
The series can be described thus: EMSA; EMSA: 20 mM HEPES-KOH pH 7.5, 100 mM KCl, 0.05% NP-40, 10 nM Cy5 probe (1 uL of 100 nM + 9 uL protein), 30 min room temperature; 1.6% TBE-agarose gel. The conditions noted are these: protein: recombinant; tags: N-terminal GST (pGEX-4T-1); label: 5' Cy5; single-stranded.

As to CUCCUCCGGCGAUAAGUACGCCUUUUCCUUACCUGGGUUU (ssRNA) [FLC 40-nt ssRNA], the Kd was roughly 200 nM.
